Measurements published in US20260234272A1 (SCHOLAR ROCK, published 2026).
One block for each binder: values may come before it.

How the values were obtained:
GARP-proTGFβ1 complex = molecular target: T1, GARP-proTGFβ1 complex (human, UniProt Q14392 20-627; P01137 30-390, limits assumed); experiment: Octet, yeast expressed IgG1Agly; concentration not shown
T1 construct: In the cell assays GARP was overexpressed from a human plasmid (whole, on cells); also called GARP-TGFβ1

[1] = molecular target: T2, human LTBP1-proTGFβ1 complex (human, UniProt Q14766 347-1721; P01137 30-390); experiment: Octet binning: 500 nM complex pre-incubated with 1 µM first antibody SR-AB10; competitor: second antibody SR-AB1 on AHC tip
T2 construct: Complex of presenting molecule LTBP1 disulfide-linked to a proTGFβ1 homodimer; also called proTGFβ1:LTBP1 complex; LTBP1-TGFβ1 complex
Protocol: (§1) 500 nM of human LTBP1-proTGFβ1 complex was pre-incubated with 1 μM of each test antibody. After an overnight incubation, the LTBP1-[…] first antibody was tested for binding to a second antibody which was immobilized to an Anti-Human IgG Fc Capture (AHC) sensor tip at 67 nM.
(§2) Binding of the complex to a specific second antibody was normalized to the uninhibited interaction, that is the complex in the presence of HuNeg control antibody. Normalized responses less than 70% or 0.7 of the uninhibited interaction were considered antibodies that cross block.

[2] = molecular target: T2, human LTBP1-proTGFβ1 complex; experiment: Octet binning: 500 nM complex pre-incubated with 1 µM first antibody SR-AB10; competitor: second antibody SR-AB2 on AHC tip
Protocol: as §1, §2

[3] = molecular target: T2, human LTBP1-proTGFβ1 complex; experiment: Octet binning: 500 nM complex pre-incubated with 1 µM first antibody SR-AB10; competitor: second antibody SR-AB10 on AHC tip
Protocol: as §1, §2

[4] = molecular target: T2, human LTBP1-proTGFβ1 complex; experiment: Octet binning: 500 nM complex pre-incubated with 1 µM first antibody SR-AB10; competitor: second antibody SR-AB13 on AHC tip
Protocol: as §1, §2

[5] = molecular target: T2, human LTBP1-proTGFβ1 complex; experiment: Octet binning: 500 nM complex pre-incubated with 1 µM first antibody SR-AB2; competitor: second antibody SR-AB1 on AHC tip
Protocol: as §1, §2

[6] = molecular target: T2, human LTBP1-proTGFβ1 complex; experiment: Octet binning: 500 nM complex pre-incubated with 1 µM first antibody SR-AB2; competitor: second antibody SR-AB2 on AHC tip
Protocol: as §1, §2

[7] = molecular target: T2, human LTBP1-proTGFβ1 complex; experiment: Octet binning: 500 nM complex pre-incubated with 1 µM first antibody SR-AB2; competitor: second antibody SR-AB10 on AHC tip
Protocol: as §1, §2

[8] = molecular target: T2, human LTBP1-proTGFβ1 complex; experiment: Octet binning: 500 nM complex pre-incubated with 1 µM first antibody SR-AB2; competitor: second antibody SR-AB13 on AHC tip
Protocol: as §1, §2

[9] = molecular target: T2, human LTBP1-proTGFβ1 complex; experiment: Octet binning: 500 nM complex pre-incubated with 1 µM first antibody SR-AB13; competitor: second antibody SR-AB1 on AHC tip
[10] = molecular target: T2, human LTBP1-proTGFβ1 complex; experiment: Octet binning: 500 nM complex pre-incubated with 1 µM first antibody SR-AB13; competitor: second antibody SR-AB2 on AHC tip
[11] = molecular target: T2, human LTBP1-proTGFβ1 complex; experiment: Octet binning: 500 nM complex pre-incubated with 1 µM first antibody SR-AB13; competitor: second antibody SR-AB10 on AHC tip
[12] = molecular target: T2, human LTBP1-proTGFβ1 complex; experiment: Octet binning: 500 nM complex pre-incubated with 1 µM first antibody SR-AB13; competitor: second antibody SR-AB13 on AHC tip

T2 sequence (Q14766 347-1721 limits assumed, chain 1 of 2): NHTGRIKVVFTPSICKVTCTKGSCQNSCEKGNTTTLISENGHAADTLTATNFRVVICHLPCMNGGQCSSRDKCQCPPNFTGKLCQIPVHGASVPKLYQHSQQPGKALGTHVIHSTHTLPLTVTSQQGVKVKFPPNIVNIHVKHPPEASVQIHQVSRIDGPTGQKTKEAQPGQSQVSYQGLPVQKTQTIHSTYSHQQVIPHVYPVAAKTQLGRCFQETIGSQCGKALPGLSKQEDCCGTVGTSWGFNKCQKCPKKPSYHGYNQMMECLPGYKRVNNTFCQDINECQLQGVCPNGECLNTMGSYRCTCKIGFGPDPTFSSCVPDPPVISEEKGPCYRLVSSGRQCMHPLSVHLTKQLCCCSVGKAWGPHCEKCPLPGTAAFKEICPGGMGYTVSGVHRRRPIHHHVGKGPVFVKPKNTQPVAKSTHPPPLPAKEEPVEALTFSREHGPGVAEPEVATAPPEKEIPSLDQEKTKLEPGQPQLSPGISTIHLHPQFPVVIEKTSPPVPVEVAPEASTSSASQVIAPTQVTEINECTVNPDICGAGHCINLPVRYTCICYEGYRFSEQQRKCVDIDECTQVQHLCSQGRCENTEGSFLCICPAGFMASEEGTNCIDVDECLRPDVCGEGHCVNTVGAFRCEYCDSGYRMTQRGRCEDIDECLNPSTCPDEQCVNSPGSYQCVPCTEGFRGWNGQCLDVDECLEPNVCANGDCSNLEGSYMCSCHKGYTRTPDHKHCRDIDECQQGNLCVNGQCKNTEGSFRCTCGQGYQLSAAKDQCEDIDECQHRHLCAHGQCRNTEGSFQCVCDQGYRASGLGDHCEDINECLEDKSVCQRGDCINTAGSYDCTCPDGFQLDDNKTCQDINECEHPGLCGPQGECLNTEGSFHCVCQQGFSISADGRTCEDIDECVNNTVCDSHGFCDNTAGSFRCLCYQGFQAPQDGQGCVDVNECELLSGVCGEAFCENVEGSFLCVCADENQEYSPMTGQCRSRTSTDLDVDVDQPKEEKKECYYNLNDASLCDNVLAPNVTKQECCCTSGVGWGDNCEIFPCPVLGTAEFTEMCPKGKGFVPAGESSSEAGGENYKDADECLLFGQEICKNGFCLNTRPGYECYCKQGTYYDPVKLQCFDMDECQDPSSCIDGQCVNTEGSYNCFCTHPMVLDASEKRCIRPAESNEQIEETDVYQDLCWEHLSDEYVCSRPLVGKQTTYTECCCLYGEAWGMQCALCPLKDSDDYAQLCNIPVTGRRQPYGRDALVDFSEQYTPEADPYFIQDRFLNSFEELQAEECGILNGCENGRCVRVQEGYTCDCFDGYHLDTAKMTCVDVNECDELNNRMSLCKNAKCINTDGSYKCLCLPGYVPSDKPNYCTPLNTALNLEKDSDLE
T2 sequence (P01137 30-390 limits assumed, chain 2 of 2): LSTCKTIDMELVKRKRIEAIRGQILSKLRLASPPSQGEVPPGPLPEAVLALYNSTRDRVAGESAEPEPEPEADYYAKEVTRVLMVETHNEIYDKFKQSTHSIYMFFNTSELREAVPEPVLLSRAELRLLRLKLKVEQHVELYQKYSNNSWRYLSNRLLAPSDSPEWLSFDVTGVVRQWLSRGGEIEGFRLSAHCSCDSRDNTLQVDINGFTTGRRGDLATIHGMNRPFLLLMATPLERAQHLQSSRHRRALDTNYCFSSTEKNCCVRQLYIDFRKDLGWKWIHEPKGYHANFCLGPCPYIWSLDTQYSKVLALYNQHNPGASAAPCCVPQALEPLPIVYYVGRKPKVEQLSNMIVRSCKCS
T1 sequence (Q14392 20-627 limits assumed, chain 1 of 2): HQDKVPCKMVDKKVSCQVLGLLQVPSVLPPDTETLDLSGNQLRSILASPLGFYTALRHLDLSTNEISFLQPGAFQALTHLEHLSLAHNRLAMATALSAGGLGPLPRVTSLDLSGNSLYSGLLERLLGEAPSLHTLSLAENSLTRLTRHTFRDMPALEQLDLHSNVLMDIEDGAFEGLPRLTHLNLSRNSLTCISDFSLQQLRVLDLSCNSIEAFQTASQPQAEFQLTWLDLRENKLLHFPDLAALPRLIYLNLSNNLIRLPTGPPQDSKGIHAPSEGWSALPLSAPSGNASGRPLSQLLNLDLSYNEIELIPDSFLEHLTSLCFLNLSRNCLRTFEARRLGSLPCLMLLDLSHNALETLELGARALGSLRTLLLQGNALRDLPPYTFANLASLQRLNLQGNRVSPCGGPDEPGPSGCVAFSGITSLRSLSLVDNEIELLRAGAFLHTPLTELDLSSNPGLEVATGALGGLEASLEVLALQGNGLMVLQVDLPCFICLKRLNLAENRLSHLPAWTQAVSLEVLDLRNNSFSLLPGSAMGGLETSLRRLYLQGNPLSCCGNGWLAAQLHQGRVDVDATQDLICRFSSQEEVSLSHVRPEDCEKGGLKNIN
T1 sequence (P01137 30-390 limits assumed, chain 2 of 2): as the sequence (P01137 30-390 limits assumed, chain 2 of 2) above

binding result (GARP-proTGFβ1 complex): no binding | normalized response (relative to HuNeg control) [1]: 0.82 fraction of uninhibited interaction | normalized response (relative to HuNeg control) [2]: 1.53 fraction of uninhibited interaction | normalized response (relative to HuNeg control) [3]: 0.51 fraction of uninhibited interaction | normalized response (relative to HuNeg control) [4]: 1.27 fraction of uninhibited interaction
B1: SR-AB10 (antibody, V domains shown)
VH: QLQLQESGGGVVQPGRSLRLSCAASGFTFNNYPIHWVRQAPGKGLEWVAVMSYDGINKYYADSVKGRFTISRDNSKNTLYLQMNSLRAEDTAVYYCARPRIAARRGGFDYWGQGTLVTVSS
VL: NFMLTQPHSVSESPGKTVTISCTRSSGNIDNNYVQWYQQRPGSSPTTVIYEDNQRPSGVPDRFSGSIDSSSNSASLTISGLKTEDEADYYCQSYDSDNQGVVFGGGTKLTVL

normalized response (relative to HuNeg control) [5]: 1.11 fraction of uninhibited interaction | normalized response (relative to HuNeg control) [6]: 0.47 fraction of uninhibited interaction | normalized response (relative to HuNeg control) [7]: 1.54 fraction of uninhibited interaction | normalized response (relative to HuNeg control) [8]: 1.31 fraction of uninhibited interaction
B2: SR-AB2 (antibody, V domains shown)
VH: QVQLVQSGAEVKKPGASVKVSCKASGYTFTSYGISWVRQAPGQGLEWMGWISAYNGNTNYAQKLQGRVTMTTDTSTSTAYMELRSLRSDDTAVYYCARAPLGNFDSWGQGTMVTVSS
VL: NFMLTQPHSVSESPGKTVTISCTRSSGSIASNYVQWYQQRPGSSPTTVIYEDNQRPSGVPDRFSGSIDSSSNSASLTISGLKTEDEADYYCQSYDSSNHPVVFGGGTKLTVL

normalized response (relative to HuNeg control) [9]: 1.08 fraction of uninhibited interaction | normalized response (relative to HuNeg control) [10]: 1.29 fraction of uninhibited interaction | normalized response (relative to HuNeg control) [11]: 1.38 fraction of uninhibited interaction | normalized response (relative to HuNeg control) [12]: 0.47 fraction of uninhibited interaction
B3: SR-AB13 (antibody, V domains shown)
VH: QLQLQESGPGLVKPSETLSLTCTVSGGSISSSSYYWGWIRQPPGKGLEWIGSISYSGSTYYNPSLKSRVTISVDTSKNQFSLKLSSVTAADTAVYYCARDPSYDSIAGMDVWGQGTTVTVSS
VL: DIQLTQSPSSLSASVGDRVTITCRASQSISSYLNWYQQKPGKAPKLLIYAASNLQSGVPSRFSGSGSGTDFTLTISSLQPEDFATYYCQQSFDFPFTFGGGTKVEIK
